In PMC7804152, “Structural basis for the multi-activity factor Rad5 in replication stress tolerance”:

What was measured:
ScHIRAN = target: T1, ScHIRAN (Saccharomyces cerevisiae, UniProt P32849 171-375); experiment: EMSA; FP: 20 mM Tris pH 7.5, 50 mM (dsDNA, KlHIRAN) or 70 mM (ssDNA) NaCl, 2 mM MgCl2, 1 nM DNA, room temp; EMSA: 20 mM Tris pH 7.5, 100 mM KCl, 0.5 mM DTT, 3% glycerol, 2 mM MgCl2, 250 ug/mL BSA, 4 C; pull-down: 20 mM Tris pH 7.5, 50 mM NaCl, 4 C; conditions: protein: recombinant; tags: intein-CBD cleaved off; label: 5'-FAM
T1 sequence: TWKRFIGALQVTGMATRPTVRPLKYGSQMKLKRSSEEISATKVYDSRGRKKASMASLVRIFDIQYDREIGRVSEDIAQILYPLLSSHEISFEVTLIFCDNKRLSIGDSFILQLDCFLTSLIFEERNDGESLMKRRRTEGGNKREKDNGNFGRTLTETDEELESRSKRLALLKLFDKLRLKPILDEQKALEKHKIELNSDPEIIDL

KlHIRAN = target: T2, KlHIRAN (Kluyveromyces lactis, UniProt Q6CJM4 174-341); experiment: as above; conditions: protein: recombinant; tags: intein-CBD cleaved off; label: 5'-FAM
T2 sequence: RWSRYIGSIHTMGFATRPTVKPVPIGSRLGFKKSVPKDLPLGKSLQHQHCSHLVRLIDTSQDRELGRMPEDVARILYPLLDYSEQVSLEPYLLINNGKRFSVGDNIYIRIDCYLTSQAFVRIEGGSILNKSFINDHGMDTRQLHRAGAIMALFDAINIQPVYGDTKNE

HsHIRAN = target: T3, HsHIRAN (Homo sapiens, UniProt Q14527 55-180); experiment: EMSA; strong preference for free 3'-OH; FP: 20 mM Tris pH 7.5, 50 mM (dsDNA, KlHIRAN) or 70 mM (ssDNA) NaCl, 2 mM MgCl2, 1 nM DNA, room temp; EMSA: 20 mM Tris pH 7.5, 100 mM KCl, 0.5 mM DTT, 3% glycerol, 2 mM MgCl2, 250 ug/mL BSA, 4 C; pull-down: 20 mM Tris pH 7.5, 50 mM NaCl, 4 C; conditions: protein: recombinant; tags: His (pET28a), HA; label: 5'-FAM
T3 sequence: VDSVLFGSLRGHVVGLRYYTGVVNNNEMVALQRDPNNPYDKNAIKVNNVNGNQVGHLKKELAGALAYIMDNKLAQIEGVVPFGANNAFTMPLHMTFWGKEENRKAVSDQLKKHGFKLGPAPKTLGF

KlRad5 [1] = target: T4, KlRad5 (Kluyveromyces lactis, UniProt Q6CJM4 163-1114); experiment: fluorescence polarization; 70 mM NaCl; similar to 5'-FAM; FP: 20 mM Tris pH 7.5, 50 mM (dsDNA, KlHIRAN) or 70 mM (ssDNA) NaCl, 2 mM MgCl2, 1 nM DNA, room temp; EMSA: 20 mM Tris pH 7.5, 100 mM KCl, 0.5 mM DTT, 3% glycerol, 2 mM MgCl2, 250 ug/mL BSA, 4 C; pull-down: 20 mM Tris pH 7.5, 50 mM NaCl, 4 C; conditions: protein: recombinant; tags: none; label: 3'-FAM
T4 sequence: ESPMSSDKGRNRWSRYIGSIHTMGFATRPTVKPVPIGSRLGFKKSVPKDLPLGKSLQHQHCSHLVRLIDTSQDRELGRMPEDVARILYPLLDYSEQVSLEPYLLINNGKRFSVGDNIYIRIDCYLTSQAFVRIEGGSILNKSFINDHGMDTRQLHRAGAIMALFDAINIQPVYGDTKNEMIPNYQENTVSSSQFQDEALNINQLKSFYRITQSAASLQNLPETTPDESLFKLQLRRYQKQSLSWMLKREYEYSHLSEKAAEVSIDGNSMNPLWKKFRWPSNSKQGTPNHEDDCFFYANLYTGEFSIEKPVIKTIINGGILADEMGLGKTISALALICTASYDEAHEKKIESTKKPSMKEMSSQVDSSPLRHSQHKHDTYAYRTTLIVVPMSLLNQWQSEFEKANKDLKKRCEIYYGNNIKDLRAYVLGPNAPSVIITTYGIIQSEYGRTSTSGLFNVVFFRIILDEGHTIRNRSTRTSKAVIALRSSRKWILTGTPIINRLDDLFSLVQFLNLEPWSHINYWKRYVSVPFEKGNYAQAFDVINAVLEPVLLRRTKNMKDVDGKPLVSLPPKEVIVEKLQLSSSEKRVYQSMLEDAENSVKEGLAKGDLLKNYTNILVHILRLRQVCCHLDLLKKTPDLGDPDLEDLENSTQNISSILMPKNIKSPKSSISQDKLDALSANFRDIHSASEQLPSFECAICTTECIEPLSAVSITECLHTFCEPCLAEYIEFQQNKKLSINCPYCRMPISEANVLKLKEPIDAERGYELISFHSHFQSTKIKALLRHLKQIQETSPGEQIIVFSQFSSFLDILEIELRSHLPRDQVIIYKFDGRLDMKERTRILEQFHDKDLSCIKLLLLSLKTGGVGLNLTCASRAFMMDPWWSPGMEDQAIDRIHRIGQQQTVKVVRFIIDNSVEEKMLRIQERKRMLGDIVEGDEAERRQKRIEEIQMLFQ

His-KlRad5 = target: T5, His-KlRad5 (Kluyveromyces lactis, UniProt Q6CJM4 163-1114); experiment: fluorescence polarization; FP: 20 mM Tris pH 7.5, 50 mM (dsDNA, KlHIRAN) or 70 mM (ssDNA) NaCl, 2 mM MgCl2, 1 nM DNA, room temp; EMSA: 20 mM Tris pH 7.5, 100 mM KCl, 0.5 mM DTT, 3% glycerol, 2 mM MgCl2, 250 ug/mL BSA, 4 C; pull-down: 20 mM Tris pH 7.5, 50 mM NaCl, 4 C; conditions: protein: recombinant; tags: N-terminal His6; label: 5'-FAM
T5 sequence: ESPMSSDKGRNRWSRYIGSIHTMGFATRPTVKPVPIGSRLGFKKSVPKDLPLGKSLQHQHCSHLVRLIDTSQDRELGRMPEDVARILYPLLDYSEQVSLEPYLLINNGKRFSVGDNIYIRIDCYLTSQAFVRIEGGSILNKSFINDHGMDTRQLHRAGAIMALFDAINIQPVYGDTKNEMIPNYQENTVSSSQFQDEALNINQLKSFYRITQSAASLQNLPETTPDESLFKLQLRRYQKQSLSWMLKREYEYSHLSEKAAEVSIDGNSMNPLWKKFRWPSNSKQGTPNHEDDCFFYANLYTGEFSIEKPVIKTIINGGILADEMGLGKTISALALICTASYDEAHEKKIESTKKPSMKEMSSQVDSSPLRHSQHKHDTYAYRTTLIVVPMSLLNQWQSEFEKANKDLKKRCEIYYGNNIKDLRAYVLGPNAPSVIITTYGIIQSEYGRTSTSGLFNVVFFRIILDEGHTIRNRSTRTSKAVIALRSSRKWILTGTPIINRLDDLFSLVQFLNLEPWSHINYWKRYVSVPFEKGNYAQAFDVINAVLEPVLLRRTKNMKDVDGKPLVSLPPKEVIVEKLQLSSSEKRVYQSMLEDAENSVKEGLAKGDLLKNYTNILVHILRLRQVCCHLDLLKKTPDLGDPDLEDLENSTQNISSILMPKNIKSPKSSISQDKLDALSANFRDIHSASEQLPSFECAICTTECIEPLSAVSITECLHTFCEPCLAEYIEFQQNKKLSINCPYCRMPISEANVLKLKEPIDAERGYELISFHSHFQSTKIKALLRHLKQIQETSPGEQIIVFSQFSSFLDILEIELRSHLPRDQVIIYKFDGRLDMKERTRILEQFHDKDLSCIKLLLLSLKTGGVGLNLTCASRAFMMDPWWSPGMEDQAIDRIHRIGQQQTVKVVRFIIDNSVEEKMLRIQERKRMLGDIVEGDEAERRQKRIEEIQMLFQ

KlRad5 [2] = target: T4, KlRad5; experiment: fluorescence polarization; 70 mM NaCl; FP: 20 mM Tris pH 7.5, 50 mM (dsDNA, KlHIRAN) or 70 mM (ssDNA) NaCl, 2 mM MgCl2, 1 nM DNA, room temp; EMSA: 20 mM Tris pH 7.5, 100 mM KCl, 0.5 mM DTT, 3% glycerol, 2 mM MgCl2, 250 ug/mL BSA, 4 C; pull-down: 20 mM Tris pH 7.5, 50 mM NaCl, 4 C; conditions: protein: recombinant; tags: none; label: 5'-FAM

## TTTTTTTTTT (ssDNA) [dT10, 5'-FAM]
ScHIRAN
  binding result: binds
KlHIRAN
  binding result: binds
HsHIRAN
  binding result: binds

## TTTTTTTCGTCTTCGGCAATTTTTT (ssDNA) [S1 ssDNA, 3'-FAM]
KlRad5 [1]
  binding result: binds

## TTTTTTTCGTCTTCGGCAATTTTTT (ssDNA) [S1 ssDNA, 5'-FAM]
His-KlRad5
  binding result: binds
KlRad5 [2]
  binding result: binds
